Test results published in paper doi:10.1101/2020.07.31.231746 (2020).

Molecular target: WT ACE2(740)-Fc (human, UniProt Q9BYF1 18-740)
Test: BLI

B1: HCoV-NL63 spike RBD (domain or fragment)
chain: QHTDINFTATASFGGSCYVCKPHQVNISLNGNTSVCVRTSHFSIRYIYNRVKSGSPGDSSWHIYLKSGTCPFSFSKLNNFQKFKTICFSTVEVPGSCNFPLEATWHYTSYTIVGALYVTWSEGNSITGVPYPVSGI
Kd: 22 nM
